A short description of series [1]: Microsomal stability in human liver microsomes. In kind it is in vitro ADME. How it is done:
Chemical stability in HCl Buffer, PBS buffer and culture medium (EMEM) was evaluated by LC-MS dissolving compound 1 at 10 μM (final concertation) in cited buffers and injecting aliquots removed from incubations at different time points. Microsomal stability was evaluated employing 50 mM potassium phosphate buffer (pH 7.4) containing 0.15 mg of Human liver microsomes (Sigma-Aldrich, St. Louis, MO, United States) 5 mM MgCl2, 1 mM NADPH, 5 mM glucose 6-phosphate, 0.4 U·mL^−1 glucose 6-phosphate dehydrogenase. Compounds were tested at 1 µM final concentration. Aliquots, removed at different time points, were diluted with ice-cold acetonitrile and analyzed by LC-MS.

For a further series, the system named is U937 cells. The series is described as follows: Pro-inflammatory gene expression (qRT-PCR) in LPS-activated U937 cells. Format: cell-based, human. To be noted: LPS 100 ng/mL, 18 h, BAR502 and clofibrate 5 and 10 μM, compound 1 10 μM. How it is done: U937 cell line were cultured in RPMI 1640 supplemented with 10% FBS, 1% glutamine, and 1% penicillin/streptomycin and were regularly passaged to maintain exponential growth. After 24 h of starvation cells were classically activated with LPS (100 ng/mL; Sigma-Aldrich, St. Louis, MO), and exposed or not to BAR502, clofibrate and compound 1 at the concentration of 5 and 10 μM for 18 h. At the end of the experiment the cells were recovered. Total mRNA extraction from U937 and 3T3.L1 was performed using Tri-Reagent (Zymo Research) and Direct-zolTM RNA MiniPrep w/Zymo-SpinTM IIC Columns (Zymo Research, Irvine, CA). After purification from genomic DNA using DNase I (Thermo Fisher Scientific, Waltham, MA), 1 μg of RNA from each sample was reverse transcribed using Kit […] Basic (Nippon Genetics, […] 20-μL of reaction volume; 50 ng of cDNA was amplified in a 20-μL solution containing 200 nM each primer and 10 μL of PowerUpTM SYBRTM Green Master Mix (Thermo Fisher Scientific, Waltham, MA). All reactions were performed in triplicate using the following thermal cycling conditions: 3 min at 95°C, followed by 40 cycles of 95°C for 15 s, 56°C for 20 s, and 72°C for 30 s, using a QuantStudio 3 system (Applied Biosystems, Foster City, CA). The relative mRNA expression was calculated accordingly to the ΔCt method. Primers were designed using the software PRIMER3 (http://frodo.wi.mit.edu/primer3/) using published data obtained from the NCBI database. The primer used were as following (forward and reverse): hGAPDH (for […]-1β (for [NT], hIL6 (for [NT] hCXCL2 (for [NT] hTNFα; (for [NT], mAdiponectin (for […]ɤ (for [NT], mCebp (for [NT]
In general terms: Quantitative PCR measures a nucleic acid by following its amplification.

The target of a further series is T1, FXR-LBD GST-fused.
T1 sequence (Q96RI1 whole entry, species assumed, looked up): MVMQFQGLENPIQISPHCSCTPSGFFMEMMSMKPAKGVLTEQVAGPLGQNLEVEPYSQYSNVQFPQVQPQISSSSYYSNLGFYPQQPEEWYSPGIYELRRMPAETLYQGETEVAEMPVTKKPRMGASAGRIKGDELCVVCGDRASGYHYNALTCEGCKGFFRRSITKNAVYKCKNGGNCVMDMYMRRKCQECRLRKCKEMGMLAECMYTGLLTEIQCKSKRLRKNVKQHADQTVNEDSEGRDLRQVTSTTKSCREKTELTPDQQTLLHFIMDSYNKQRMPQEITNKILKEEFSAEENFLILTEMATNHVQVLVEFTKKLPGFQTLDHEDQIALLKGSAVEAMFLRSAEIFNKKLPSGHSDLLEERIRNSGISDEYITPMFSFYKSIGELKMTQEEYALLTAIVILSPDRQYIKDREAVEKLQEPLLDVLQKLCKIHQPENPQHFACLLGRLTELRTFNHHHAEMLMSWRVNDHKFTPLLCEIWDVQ
The series is described as follows: AlphaScreen or HTRF; coactivator recruitment; 10 nM GST-FXR-LBD, 30 nM biotinylated SRC1 peptide, 20 μg/mL donor and acceptor beads; 50 mM Tris-HCl pH 7.4, 20 mM KCl, 1 mM DTT, 0.1% BSA; 25 μL, 384 wells; compounds at 10 μM for efficacy (% vs. CDCA), concentration-response for EC50. A general note: Alpha assays give light when donor and acceptor beads are brought close together.

Another series addresses T2, PPARα LBD GST fused.
T2 sequence (Q07869 whole entry, species assumed, looked up): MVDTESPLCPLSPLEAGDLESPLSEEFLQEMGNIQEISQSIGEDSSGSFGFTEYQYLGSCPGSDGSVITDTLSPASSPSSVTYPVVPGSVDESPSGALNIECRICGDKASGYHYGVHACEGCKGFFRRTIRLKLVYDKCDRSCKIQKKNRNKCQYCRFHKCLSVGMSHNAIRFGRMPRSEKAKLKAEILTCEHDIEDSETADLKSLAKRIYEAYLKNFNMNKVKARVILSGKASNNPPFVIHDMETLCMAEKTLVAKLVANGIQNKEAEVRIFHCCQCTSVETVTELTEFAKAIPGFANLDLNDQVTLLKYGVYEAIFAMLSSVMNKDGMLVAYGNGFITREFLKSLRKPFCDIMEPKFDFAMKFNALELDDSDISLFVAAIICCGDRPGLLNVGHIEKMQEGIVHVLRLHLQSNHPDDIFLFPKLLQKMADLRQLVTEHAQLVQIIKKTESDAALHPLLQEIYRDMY
The series can be described thus: AlphaScreen or HTRF; coactivator recruitment; 20 nM GST-PPARα-LBD, 60 nM biotinylated SRC1 peptide, 20 μg/mL donor and acceptor beads; 50 mM MOPS, 50 mM NaF, 0.05 mM CHAPS, 0.05% BSA, pH 7.4; 25 μL, 384 wells; compounds at 50 μM for efficacy (% vs. fenofibrate).

These results are taken from article PMC11289669, “BAR502/fibrate conjugates: synthesis, biological evaluation and metabolic profile” (Frontiers in Chemistry, 2024).

No end group written: not given here.

Turning to `CCOC(=O)C(C)(C)Oc1ccc(Cl)cc1` [clofibrate], the “Time to conversion in clofibric acid in human microsomes” value in series [1] is listed as at most 30 min. In addition, in the series with U937 cells, the “IL-1β mRNA expression” value is “reducing the expression of pro-inflammatory cytokines” and the “IL-6 mRNA expression” value is listed as “reducing the expression of pro-inflammatory cytokines”.

B1: biotinylated SRC1 peptide (peptide)
peptide: CPSSHSSLTERHKILHRLLQEGSPS
modifications: also: biotin, position not given here
B1: in the series with FXR-LBD GST-fused, the EC50 of compound 1 for SRC-1 recruitment (the compound is titrated) was 3.4 µM, the EC50 of compound 3 for SRC-1 recruitment (the compound is titrated) was found to be 17.9 µM, the EC50 of the compound BAR502 for SRC-1 recruitment (the compound is titrated) came out at 0.69 µM and the efficacy of SRC-1 recruitment with BAR502 (% vs. CDCA) was 153 % vs. CDCA. Besides, in the series with FXR-LBD GST-fused, the efficacy of SRC-1 recruitment with compound 1 (% vs. CDCA) was 79 % vs. CDCA and the efficacy of SRC-1 recruitment with compound 3 (% vs. CDCA) was 48 % vs. CDCA. In the series with PPARα LBD GST fused, this molecule had an efficacy of SRC-1 recruitment with BAR502 (% vs. fenofibrate) (% vs. fenofibrate) of 36 and an efficacy of SRC-1 recruitment with BAR505 (% vs. fenofibrate) (% vs. fenofibrate) of 40.
